Laboratory results from patent US20240115706A1.
Residue numbers refer to the chain shown, from its start.

B1: scFv B07 (scFv)
scFv: EVQLVQSGAEVKRPGSSVKVSCKASGYTFTSYYMHWVRQAPGQGLEWMGIINPSGGSTSYAQKFQGRVTMTRDTSTSTVYMELSSLRSEDTAVYYCAAGTYSSGWTIDYWGQGTTVTVSSGGGGSGGGGSGGGASDIVMTQSPLSLPVTLGQPASISCRSSQSLVYTDGNTYLNWFQQRPGQSPRRLIYKVSNRDSGVPDRFSGSGSGTDFTLKISRVEAEDVGIYYCMHSKQWPPTFGGGTKVEIK
B2: scFv A04 (scFv)
scFv: EVQLVQPGAEVKKPGSSVKVSCKASGGTLSSYAISWVRQAPGQGLEWMGRIIPILGITNYAQKFQGRVTITADKSTSTAYMELSSLRSEDTAVYFCARDQRPASMDVWGQGTLVTVSSGGGGSGGGGSGGGASQSELTQPASVSGSPGQSITISCTGTSSDVGGYIYVSWYQQHPGKVPKLMIHDVSHRPSGVSNRFSGSRSGNTASLTISGLQAEDEADYFCSSYTSSNNYYFGTGTKVTVL
B3: scFv A02 (scFv)
scFv: B2 scFv with T227A, S228G, Y233V
B4: scFv A12 (scFv)
scFv: B2 scFv with Y233V
B5: scFv B01 (scFv)
scFv: EVQLVQPGAEVKKPGSSVKVSCKASGGTLSSYAISWVRQAPGQGLEWMGRIIPILGITNYAQKFQGRVTITADKSTSTAYMELSSLRSEDTAVYFCARDQRPASMDVWGQGTLVTVSSGGGGSGGGGSGGGASQSGLTQPASVSGSPGQSITISCTGTSSDVGGYNYVSWYQQHPGKAPKLMIYEVSNRPSGVSNRFSGSKSGNTASLTISGLQAEDEADYYCSTVTSLSTYVFGTGTKLTVL
B6: scFv A05 (scFv)
scFv: QVQLVQSGAEVKKPGSSVKVSCKASGGTFSSYTITWVRQAPGQGLEWMGRIIPVLGIANYAQKFQGRVTITADKSTSTAYMELSSLRSEDTAVYYCARDYSSSWNSMDVWGQGTLVTVSSGGGGSGGGGSGGGASQSGLTQPRSVSGSPGQSVTISCTGTSSDVGGYNYVSWYQQHPGKAPKLMIYDVSKRPSGVPDRFSGSKSGNTASLTVSGLHAEDEADYYCSSYAGSNNFVFGTGTKVTVL
B7: scFv A06 (scFv)
scFv: B6 scFv with S30G, T35S, V54I, G166A, D187E, G201A, H216Q, F234W, T238G, V242L
B8: scFv A01 (scFv)
scFv: QVQLVQSGAEVKKPGASVKVSCKASGYTFTSYYMHWVRQAPGQGLEWMGIINPSGGSTSYAQEFQGRVTMTRDTSTSTVYMELSSLRSEDTAVYYCARDGQWLQFDYWGQGTLVTVSSGGGGSGGGGSGGGASDIVMTQSPLSLPVTLGQPASISCRSSQSLLKKSDGNTYLSWYHQRPGQSPRRLIYKVSNRDSGVPDRFSGSGSDTDFTLKISRVETEDVGIYYCMQGSHWPPTFGQGTKVEIK
B9: scFv C02 (scFv)
scFv: QVQLVQSGAEVKKPGSSVKVSCKASGGTFSSYTISWVRQAPGQGLEWMGRIIPILGIANYAQKFQGRVTITADKSTSTAYMELSSLRSEDTAVYYCARDRSYNWLDPWGRGTLVTVSSGGGGSGGGGSGGGASQSALTQPVSVSGSPGQSITISCTGTISDVGDYNYVSWYQQHPGKAPKLMIYDVNNRPSGVSNRFSGSKSGNTASLTISGLQAEDEADYYCSSYTSSSTLVFGGGTKLTVL
B10: scFv B12 (scFv)
scFv: QVQLVESGGGLVKPGGSLRLSCAASGFTFSSYSMNWVRQAPGKGLEWVSVIYSGGSTHYADSVKGRFTISRHNSKNTLYLQMNSLRAEDTAVYYCARGAGTLNAFDIWGQGTTVTVSSGGGGSGGGGSGGGASQSGLTQPPSTSGSPGQSVTISCTGTSSDVGAYSYVSWYQQHPGKAPKLLIYAVTKRPSGVPDRFSGSKSGNTASLTVSGLQDEDEADYYCSSFAGGSTLVFGGGTKLTVL
B11: scFv A03 (scFv)
scFv: QVQLVQSGAEVKKPGSSVKVSCKASGGTFSSYTISWVRQAPGQELEWMGRIIPILGIANYAQKFQGRVTITADKSTSTAYMELSSLRSEDTAVYYCARDYSSSWNSMDVWGQGTLVTVSSGGGGSGGGGSGGGASQSGLTQPPSASGSPGQSVTISCTGTSSDIGYYHYVSWYQQHPGKAPKLMIYEDSKRPSGISNRFSGSKSGTTASLTVSGLQAEDEAHYYCSSFTSRSTWVFGGGTQLTVL

The binders below were run against mouse GUCY2C-rCD4 fusion protein (Mus musculus (house mouse); Rattus norvegicus) (assay: ELISA (DELFIA), antigen on streptavidin plate, scFv culture solution, Eu-anti-tag Ab).

B1 and B2 are the same in Binding ELISA signal: 66 for the first, 66 for the second.

Going from B3 to B4, the Binding ELISA signal falls from 74 to 53.

First: B5
Second: B6
The Binding ELISA signal of the first is higher: 70 for the first, 62 for the second.

Going from B7 to B8, the Binding ELISA signal rises from 80 to 352.

Going from B9 to B10, the Binding ELISA signal falls from 61 to 48.

B11 was tested, and the Binding ELISA signal was 77.

Each binder was assayed against monkey GUCY2C-rCD4 fusion protein (Macaca fascicularis (crab-eating macaque); Rattus norvegicus) in the same assay as above.
Chain of monkey GUCY2C-rCD4 fusion protein (Macaca fascicularis (crab-eating macaque); Rattus norvegicus) (chain, as listed by the source limits assumed): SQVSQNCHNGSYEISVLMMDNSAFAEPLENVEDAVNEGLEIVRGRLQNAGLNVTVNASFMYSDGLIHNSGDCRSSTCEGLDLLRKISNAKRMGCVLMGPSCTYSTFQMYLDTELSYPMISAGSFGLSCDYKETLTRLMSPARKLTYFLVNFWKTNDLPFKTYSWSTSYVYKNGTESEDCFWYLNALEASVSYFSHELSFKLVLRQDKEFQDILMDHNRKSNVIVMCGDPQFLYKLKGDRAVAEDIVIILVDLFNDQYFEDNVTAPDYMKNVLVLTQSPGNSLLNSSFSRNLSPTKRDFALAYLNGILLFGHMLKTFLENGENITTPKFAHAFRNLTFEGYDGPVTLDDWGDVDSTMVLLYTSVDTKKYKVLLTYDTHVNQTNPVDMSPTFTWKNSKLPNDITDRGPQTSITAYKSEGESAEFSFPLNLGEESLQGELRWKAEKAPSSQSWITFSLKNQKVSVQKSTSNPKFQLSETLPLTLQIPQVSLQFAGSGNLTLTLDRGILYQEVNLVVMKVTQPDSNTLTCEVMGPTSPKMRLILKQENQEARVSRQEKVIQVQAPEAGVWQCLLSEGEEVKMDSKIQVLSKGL

First: B2
Second: B3
The Binding ELISA signal of the first is higher: 73 for the first, 60 for the second.

First: B4
Second: B6
The Binding ELISA signal of the first is lower: 56 for the first, 89 for the second.
